Results published in patent US20230295298A1 (PRECISION BIOLOGICS, published 2023).
Where a chain is given by its changes, count along the chain named.

T1: human recombinant A33 antigen (human, UniProt Q99795 22-235)
T1 construct: also called rH-GPA33; rHGPA33
T1 sequence: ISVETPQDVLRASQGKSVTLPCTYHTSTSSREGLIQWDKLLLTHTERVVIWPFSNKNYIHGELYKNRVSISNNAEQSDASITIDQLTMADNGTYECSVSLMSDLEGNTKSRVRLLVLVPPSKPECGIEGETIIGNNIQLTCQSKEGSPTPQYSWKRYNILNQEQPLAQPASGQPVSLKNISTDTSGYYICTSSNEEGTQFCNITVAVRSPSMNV

T2: human A33 antigen, full length, on cells (human, UniProt Q99795 22-319)
T2 construct: CHO cells transfected with full length A33 cDNA (A33-CHO), or endogenous antigen of LS174T (colon) and AsPC-1 (pancreatic) tumour cells; The cell line is named under assay; also called A33-CHO; A33 antigen on LS174T cells
T2 sequence: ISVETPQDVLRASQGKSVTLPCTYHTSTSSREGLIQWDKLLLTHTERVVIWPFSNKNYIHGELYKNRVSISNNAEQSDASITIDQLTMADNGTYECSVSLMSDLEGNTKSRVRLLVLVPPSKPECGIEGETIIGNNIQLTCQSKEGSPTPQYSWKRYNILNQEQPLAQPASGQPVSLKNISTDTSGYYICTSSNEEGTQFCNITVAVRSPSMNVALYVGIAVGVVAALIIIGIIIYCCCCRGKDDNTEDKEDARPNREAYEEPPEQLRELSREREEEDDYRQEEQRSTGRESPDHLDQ

B1: humanized 31.1 antibody #5 (abb31.1-HC + cdr31.1-LC) (antibody, human IgG1, kappa, V domains shown)
VH: QIQLVQSGAEVKKPGASVKVSCKASGYTFTNYGMNWVRQAPGKGLEWMGWINTYTGEPTYAQKFQGRVTFTLDTSISTAYMELSRLRSDDTAVYFCARAYYGKYFDYWGQGTTVTVSS
VL: SIVMTQSPSSLSASVGDRVTITCKASQSVSNDVAWYQQKPGQSPKLLIYYASNRYTGVPDRFSGSGYGTDFTLTISSLQPEDFAVYFCQQDYSSPLTFGAGTKLEIKR
notes: Full heavy and light chains; supernatant in the first screen, Protein A/G purified in the second round; also called Sample ID 5; abb-HC + cdr-LC
B2: humanized 31.1 antibody #13 (ven-HC + cdr-LC) (antibody, human IgG1, kappa, V domains shown)
VH: QIQLVQSGPEVKKPGASVKISCKASGYTFTNYGMNWVKQAPGQGLKWMGWINTYTGEPTYADDFKGRFAFTLDTSISTAYLEISRLRSDDTAVYFCARAYYGKYFDYWGQGTTLTVSS
VL: B1 VL
notes: Full heavy and light chains; transient Expi293 expression, tested as culture supernatant; also called Sample ID 13; ven31.1-HC + cdr31.1-LC
B3: humanized 31.1 antibody #14 (ven-HC + abb-LC) (antibody, human IgG1, kappa, V domains shown)
VH: B2 VH
VL: B1 VL with V3Q, K24R, T56S
notes: Full heavy and light chains; transient Expi293 expression, tested as culture supernatant; also called Sample ID 14; ven31.1-HC + abb31.1-LC
B4: humanized 31.1 antibody #15 (ven-HC + sdr-LC) (antibody, human IgG1, kappa, V domains shown)
VH: B2 VH
VL: B1 VL with V3Q, K24R, V29I, V33L
notes: Full heavy and light chains; transient Expi293 expression, tested as culture supernatant; also called Sample ID 15; ven31.1-HC + sdr31.1-LC
B5: humanized 31.1 antibody #16 (ven31.1-HC + ven31.1-LC) (antibody, human IgG1, kappa, V domains shown)
VH: B2 VH
VL: B1 VL with A13V, L73F, L78V, F83L, I106L
notes: Full heavy and light chains; supernatant in the first screen, Protein A/G purified in the third round; also called Sample ID 16; ven-HC + ven-LC
B6: humanized 31.1 antibody #7 (abb-HC + sdr-LC) (antibody, human IgG1, kappa, V domains shown)
VH: B1 VH
VL: B1 VL with V3Q, K24R, V29I, V33L
notes: Full heavy and light chains; transient Expi293 expression, tested as culture supernatant; also called Sample ID 7; abb31.1-HC + sdr31.1-LC
B7: humanized 31.1 antibody #10 (sdr-HC + abb-LC) (antibody, human IgG1, kappa, V domains shown)
VH: B1 VH with T53P
VL: B1 VL with V3Q, K24R, T56S
notes: Full heavy and light chains; transient Expi293 expression, tested as culture supernatant; also called Sample ID 10; sdr31.1-HC + abb31.1-LC
B8: humanized 31.1 antibody #2 (cdr-HC + abb-LC) (antibody, human IgG1, kappa, V domains shown)
VH: B2 VH with P9A, I20V, Q43K, L81M, I83L, L114V
VL: B1 VL with V3Q, K24R, T56S
notes: Full heavy and light chains; transient Expi293 expression, tested as culture supernatant; also called Sample ID 2; cdr31.1-HC + abb31.1-LC
B9: humanized 31.1 antibody #9 (sdr-HC + cdr-LC) (antibody, human IgG1, kappa, V domains shown)
VH: B1 VH with T53P
VL: B1 VL
notes: Full heavy and light chains; transient Expi293 expression, tested as culture supernatant; also called Sample ID 9; sdr31.1-HC + cdr31.1-LC
B10: humanized 31.1 antibody #1 (cdr-HC + cdr-LC) (antibody, human IgG1, kappa, V domains shown)
VH: B2 VH with P9A, I20V, Q43K, L81M, I83L, L114V
VL: B1 VL
notes: Full heavy (448 aa) and light (214 aa) chains; transient Expi293 expression, tested as culture supernatant; also called Sample ID 1; cdr31.1-HC + cdr31.1-LC
B11: humanized 31.1 antibody #8 (abb-HC + ven-LC) (antibody, human IgG1, kappa, V domains shown)
VH: B1 VH
VL: B1 VL with A13V, L73F, L78V, F83L, I106L
notes: Full heavy and light chains; transient Expi293 expression, tested as culture supernatant; also called Sample ID 8; abb31.1-HC + ven31.1-LC
B12: humanized 31.1 antibody #3 (cdr-HC + sdr-LC) (antibody, human IgG1, kappa, V domains shown)
VH: B2 VH with P9A, I20V, Q43K, L81M, I83L, L114V
VL: B1 VL with V3Q, K24R, V29I, V33L
notes: Full heavy and light chains; transient Expi293 expression, tested as culture supernatant; also called Sample ID 3; cdr31.1-HC + sdr31.1-LC
B13: humanized 31.1 antibody #4 (cdr-HC + ven-LC) (antibody, human IgG1, kappa, V domains shown)
VH: B2 VH with P9A, I20V, Q43K, L81M, I83L, L114V
VL: B1 VL with A13V, L73F, L78V, F83L, I106L
notes: Full heavy and light chains; transient Expi293 expression, tested as culture supernatant; also called Sample ID 4; cdr31.1-HC + ven31.1-LC
B14: humanized 31.1 antibody #6 (abb31.1-HC + abb31.1-LC) (antibody, human IgG1, kappa, V domains shown)
VH: B1 VH
VL: B1 VL with V3Q, K24R, T56S
notes: Full heavy and light chains; supernatant in the first screen, Protein A/G purified in the second round; also called Sample ID 6; abb-HC + abb-LC
B15: humanized 31.1 antibody #12 (sdr-HC + ven-LC) (antibody, human IgG1, kappa, V domains shown)
VH: B1 VH with T53P
VL: B1 VL with A13V, L73F, L78V, F83L, I106L
notes: Full heavy and light chains; transient Expi293 expression, tested as culture supernatant; also called Sample ID 12; sdr31.1-HC + ven31.1-LC
B16: H31.1 #5-biotin (antibody, human IgG1, kappa, V domains shown)
VH: B1 VH
VL: B1 VL
modifications: biotinylated antibody, sites not stated
notes: Biotinylated form of antibody #5; also called biotinylated #5; biotinylated h31.1 #5
B17: H31.1 #6-biotin (antibody, human IgG1, kappa, V domains shown)
VH: B1 VH
VL: B1 VL with V3Q, K24R, T56S
modifications: biotinylated antibody, sites not stated
notes: Biotinylated form of antibody #6; also called biotinylated #6; biotinylated h31.1 #6

Each binder was assayed against T1, human recombinant A33 antigen (assay: rH-GPA33 binding ELISA, 2ug/mL of 31.1, supernatant).
Method: (§1) Human IgG ELISA, rH-GPA33 Binding ELISA, cell Flow Cytometry (LS174T or AsPAC1), IHC staining (LS174T FFPE, tumor FFPE and Frozen tumor sections) and Coomassie blue staining of SDS-PAGE gel were used for the screening. Antibody in the culture supernatant was purified by Protein A/G purification in the column and dissolved in PBS buffer after three times dialysis. Aliquots of the antibodies were kept at -20° C. for storage.
(§2) Each combination was produced by transient transfection by using Expi293 Expression System Kit (Gibco, cat# A14635). […] Methods of Human IgG ELISA, rH-GPA33 Binding ELISA, LS174T cell Flow Cytometry, IHC staining on LS174T FFPE sections and Coomassie blue staining of SDS-PAGE gel were used for the initial screening.

Binder | OD Value of rH-GPA33 Binding ELISA
B1 | 0.85 OD
B2 | 1.27 OD
B3 | 1.44 OD
B4 | 0.46 OD
B5 | 1.74 OD
B6 | 0.2 OD
B7 | 0.07 OD
B8 | 0.86 OD
B9 | 0.07 OD
B10 | 0.8 OD
B11 | 1.2 OD
B12 | 0.29 OD
B13 | 1.27 OD
B14 | 0.74 OD
B15 | 0.06 OD

Each binder was assayed against T1, human recombinant A33 antigen (assay: rH-GPA33 binding ELISA).

Binder | EC50
B1 | 0.396 µg/mL
B16 | 0.679 µg/mL
B14 | 1.23 µg/mL
B17 | 12.8 µg/mL

These binders were tested against T2, human A33 antigen, full length, on cells (assay: IHC on LS174T FFPE sections, 20ug/mL).
Method: as §1, §2

Binder | H-Score of IHC
B2 | 20 H-Score
B4 | 90 H-Score
B6 | 120 H-Score
B8 | 0 H-Score
B9 | 150 H-Score
B10 | 0 H-Score
B11 | 125 H-Score
B12 | 0 H-Score
B13 | 0 H-Score
B15 | 30 H-Score

These binders were tested against T2, human A33 antigen, full length, on cells (assay: flow cytometry, LS-174T cells).

Binder | EC50
B1 | 0.0625 µg/mL
B14 | 0.0809 µg/mL

Each binder was assayed against T2, human A33 antigen, full length, on cells (assay: IHC on LS174T FFPE sections, 20ug/mL, repeat result).

Binder | H-Score of IHC
B1 | 100 H-Score
B3 | 30 H-Score
B5 | 0 H-Score
B7 | 115 H-Score
B14 | 240 H-Score

What follows are binders tested against T2, human A33 antigen, full length, on cells (assay: flow cytometry on LS174T cells, 0.37ug/mL).
Method: as §1, §2

Binder | MFI
B1 | 804 MFI
B2 | 1150 MFI
B3 | 1060 MFI
B4 | 689 MFI
B5 | 966 MFI
B6 | 481 MFI
B7 | 6.2 MFI
B8 | 821 MFI
B9 | 6.65 MFI
B10 | 878 MFI
B11 | 934 MFI
B12 | 520 MFI
B13 | 726 MFI
B14 | 628 MFI
B15 | 10.6 MFI

These binders were tested against T2, human A33 antigen, full length, on cells (assay: flow cytometry, AsPC-1 cells (second AsPC-1 column)).

Binder | EC50
B1 | 0.122 µg/mL
B14 | 0.152 µg/mL

The binders below were run against T2, human A33 antigen, full length, on cells (assay: flow cytometry, AsPC-1 cells (first AsPC-1 column)).

Binder | EC50
B1 | 0.235 µg/mL
B16 | 0.408 µg/mL
B14 | 0.276 µg/mL
B17 | 0.368 µg/mL

These binders were tested against T2, human A33 antigen, full length, on cells (assay: IHC on LS174T FFPE sections, 20ug/mL, first result).

Binder | H-Score of IHC
B1 | 240 H-Score
B3 | 125 H-Score
B5 | 0 H-Score
B7 | 240 H-Score
B14 | 230 H-Score
